The record followed here is article PMC4319758.

The target of experiment [1] is Sec61 channel with Sec61p of sec61-302 (D168G, S179P, F263L, S353C), in reconstituted proteoliposomes (S. cerevisiae | S. cerevisiae (endogenous in the yeast membranes)) (UniProt P32915). The experiment is described as follows: flotation of proteoliposomes in a sucrose gradient; 20 eq of reconstituted proteoliposomes with 2 pmol 19S RP in 30 µl binding buffer (20 mM Hepes-KOH pH 7.2, 250 mM sucrose, 120 mM KOAc, 5 mM Mg(OAc)2, 5 mM ATP, 1 mM DTT), 20 min on ice then 10 min at RT; flotation 55,000 rpm, 4°C, 1 hr; 9 fractions, 19S RP detected by anti-FLAG blot.

Experiment [2] has as its target Sec61 channel, wild type (Sec61p, Sbh1p, Sss1p), in reconstituted proteoliposomes (S. cerevisiae | S. cerevisiae (endogenous in the yeast membranes)) (UniProt P32915). The description is as above.
The target of experiment [3] is Sec61 channel with Sec61p of sec61-302 (D168G, S179P, F263L, S353C), in reconstituted proteoliposomes (S. cerevisiae | S. cerevisiae (endogenous in the yeast membranes)) (UniProt P32915).
Experiment [4] addresses Sec61 channel with Sec61p S353C, in reconstituted proteoliposomes (S. cerevisiae | S. cerevisiae (endogenous in the yeast membranes)) (UniProt P32915).
The target in experiment [5] is Sec61 channel with Sec61p S179P/S353C, in reconstituted proteoliposomes (S. cerevisiae | S. cerevisiae (endogenous in the yeast membranes)) (UniProt P32915).
Experiment [6] has as its target Sec61 channel with Sec61p S179P, in reconstituted proteoliposomes (S. cerevisiae | S. cerevisiae (endogenous in the yeast membranes)) (UniProt P32915).
Experiment [7] concerns the target Sec61 channel, wild type (Sec61p, Sbh1p, Sss1p), in reconstituted proteoliposomes (S. cerevisiae | S. cerevisiae (endogenous in the yeast membranes)) (UniProt P32915).

Consider “proteasome 19S regulatory particle (RP), FLAG-tagged on Rpt1 (from UniProt P33299 1-467) (complex)”, for which the percent of 19S RP bound in experiment [1] came out at 20%; in experiment [2], 40%. For the same substance, the t1/2 of Δgpαf export and degradation from microsomes in the cell-free ERAD assay with 1 mg/ml cytosol (limiting 19S RP) is 45 min in experiment [3], 45 min in experiment [4], 45 min in experiment [5] and 20 min in experiment [7]. Also, the t1/2 of Δgpαf export and degradation from microsomes in the cell-free ERAD assay with 1 mg/ml cytosol (limiting 19S RP); wildtype kinetics in experiment [6] was determined as 20 min.
